Data taken from patent US20140087995A1 (published 2014).
Numbered stars: 1 amine (or outer) side, 2 acyl side, 3 side chain; on linkers, the order of the positions; unused ones are H or OH. Bridge positions count the residues as written; N and C are the ends. Side chains are listed from the residue outwards. Ends that are not written are not given here. * marks the point of attachment. C20 diacid = O=C(O)CCCCCCCCCCCCCCCCCCC(=O)*; γGlu = O=C(O)[C@H](CCC(=O)[*:2])N[*:1]; AEEA = NCCOCCOCC(=O)O

T1: human amylin receptor (amylin 3(a) receptor: human calcitonin receptor plus RAMP-3) (human, UniProt P30988 25-474; O60896 24-148, limits assumed)
T1 sequence (looked up) 1: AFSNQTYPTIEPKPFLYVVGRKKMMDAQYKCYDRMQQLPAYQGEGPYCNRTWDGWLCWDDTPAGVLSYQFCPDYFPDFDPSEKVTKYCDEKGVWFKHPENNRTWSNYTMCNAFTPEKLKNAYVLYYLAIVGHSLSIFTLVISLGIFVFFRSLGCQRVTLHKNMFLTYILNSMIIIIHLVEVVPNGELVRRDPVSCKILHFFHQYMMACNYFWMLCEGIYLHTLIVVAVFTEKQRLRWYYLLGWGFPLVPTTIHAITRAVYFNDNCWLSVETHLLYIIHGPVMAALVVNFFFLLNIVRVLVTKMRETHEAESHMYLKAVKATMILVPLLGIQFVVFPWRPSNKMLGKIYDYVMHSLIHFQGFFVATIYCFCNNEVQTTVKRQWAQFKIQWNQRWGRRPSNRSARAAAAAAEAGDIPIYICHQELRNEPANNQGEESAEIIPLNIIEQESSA
T1 sequence (looked up) 2: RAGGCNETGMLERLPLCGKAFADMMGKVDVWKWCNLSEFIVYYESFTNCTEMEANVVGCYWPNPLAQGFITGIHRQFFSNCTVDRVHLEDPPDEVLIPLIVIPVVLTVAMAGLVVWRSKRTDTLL

T2: human calcitonin receptor (human, UniProt P30988 25-474)
T2 sequence (looked up): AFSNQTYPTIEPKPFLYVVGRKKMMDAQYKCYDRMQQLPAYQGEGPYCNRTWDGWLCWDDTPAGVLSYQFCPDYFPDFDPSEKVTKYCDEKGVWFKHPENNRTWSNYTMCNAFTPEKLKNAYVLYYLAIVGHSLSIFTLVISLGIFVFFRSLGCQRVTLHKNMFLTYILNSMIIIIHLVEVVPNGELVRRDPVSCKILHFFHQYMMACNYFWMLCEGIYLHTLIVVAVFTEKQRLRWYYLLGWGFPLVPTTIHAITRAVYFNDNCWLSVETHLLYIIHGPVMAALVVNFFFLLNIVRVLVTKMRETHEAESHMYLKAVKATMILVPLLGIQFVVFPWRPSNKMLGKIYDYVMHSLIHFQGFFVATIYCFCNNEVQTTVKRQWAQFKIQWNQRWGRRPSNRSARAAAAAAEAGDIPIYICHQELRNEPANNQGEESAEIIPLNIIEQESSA


How the values were obtained:
[1] = target: T1, human amylin receptor (amylin 3(a) …); test: cell-based or functional assay
[2] = target: T2, human calcitonin receptor; test: cell-based or functional assay

Binder | Ratio hCT/hAmylin funct. [1] | hAmylin-R funct. EC50 [1] | hCTR funct. EC50 [2]
K([AEEA-γGlu-C20 diacid])CNTATCATQRLANFLRHSSPNFGAIPSSTNVGSNTY-NH2 (disulfide 2-7; N-terminus assumed; SMILES CC[C@H](C)[C@H](NC(=O)[C@H](C)NC(=O)CNC(=O)[C@H](Cc1ccccc1)NC(=O)[C@H](CC(N)=O)NC(=O)[C@@H]1CCCN1C(=O)[C@H](CO)NC(=O)[C@H](CO)NC(=O)[C@H](Cc1c[nH]cn1)NC(=O)[C@H](CCCNC(=N)N)NC(=O)[C@H](CC(C)C)NC(=O)[C@H](Cc1ccccc1)NC(=O)[C@H](CC(N)=O)NC(=O)[C@H](C)NC(=O)[C@H](CC(C)C)NC(=O)[C@H](CCCNC(=N)N)NC(=O)[C@H](CCC(N)=O)NC(=O)[C@@H](NC(=O)[C@H](C)NC(=O)[C@@H]1CSSC[C@H](NC(=O)[C@@H](N)CCCCNC(=O)COCCOCCNC(=O)CC[C@H](NC(=O)CCCCCCCCCCCCCCCCCCC(=O)O)C(=O)O)C(=O)N[C@@H](CC(N)=O)C(=O)N[C@@H]([C@@H](C)O)C(=O)N[C@@H](C)C(=O)N[C@@H]([C@@H](C)O)C(=O)N1)[C@@H](C)O)C(=O)N1CCC[C@H]1C(=O)N[C@@H](CO)C(=O)N[C@@H](CO)C(=O)N[C@H](C(=O)N[C@@H](CC(N)=O)C(=O)N[C@H](C(=O)NCC(=O)N[C@@H](CO)C(=O)N[C@@H](CC(N)=O)C(=O)N[C@H](C(=O)N[C@@H](Cc1ccc(O)cc1)C(N)=O)[C@@H](C)O)C(C)C)[C@@H](C)O, Synthetic acylated analogue of human amylin; also called compound 41) | 16.7 ratio | 0.26 nM | 4.35 nM
K([γGlu-C20 diacid])RCNTATCATQRLANFLRHSSPNFGAIPSSTNVGSHTY-NH2 (disulfide 3-8; N-terminus assumed; SMILES CC[C@H](C)[C@H](NC(=O)[C@H](C)NC(=O)CNC(=O)[C@H](Cc1ccccc1)NC(=O)[C@H](CC(N)=O)NC(=O)[C@@H]1CCCN1C(=O)[C@H](CO)NC(=O)[C@H](CO)NC(=O)[C@H](Cc1c[nH]cn1)NC(=O)[C@H](CCCNC(=N)N)NC(=O)[C@H](CC(C)C)NC(=O)[C@H](Cc1ccccc1)NC(=O)[C@H](CC(N)=O)NC(=O)[C@H](C)NC(=O)[C@H](CC(C)C)NC(=O)[C@H](CCCNC(=N)N)NC(=O)[C@H](CCC(N)=O)NC(=O)[C@@H](NC(=O)[C@H](C)NC(=O)[C@@H]1CSSC[C@H](NC(=O)[C@H](CCCNC(=N)N)NC(=O)[C@@H](N)CCCCNC(=O)CC[C@H](NC(=O)CCCCCCCCCCCCCCCCCCC(=O)O)C(=O)O)C(=O)N[C@@H](CC(N)=O)C(=O)N[C@@H]([C@@H](C)O)C(=O)N[C@@H](C)C(=O)N[C@@H]([C@@H](C)O)C(=O)N1)[C@@H](C)O)C(=O)N1CCC[C@H]1C(=O)N[C@@H](CO)C(=O)N[C@@H](CO)C(=O)N[C@H](C(=O)N[C@@H](CC(N)=O)C(=O)N[C@H](C(=O)NCC(=O)N[C@@H](CO)C(=O)N[C@@H](Cc1c[nH]cn1)C(=O)N[C@H](C(=O)N[C@@H](Cc1ccc(O)cc1)C(N)=O)[C@@H](C)O)C(C)C)[C@@H](C)O, Synthetic acylated analogue of human amylin, extended by Lys at the N-terminus; also called compound 44) | 24 ratio | 0.198 nM | 4.75 nM
K([γGlu-γGlu-C20 diacid])CNTATCATQRLADFLRHSSNPFGAPLSSTNVGSDTY-NH2 (disulfide 2-7; N-terminus assumed; SMILES CC(C)C[C@H](NC(=O)[C@H](CCCNC(=N)N)NC(=O)[C@H](CCC(N)=O)NC(=O)[C@@H](NC(=O)[C@H](C)NC(=O)[C@@H]1CSSC[C@H](NC(=O)[C@@H](N)CCCCNC(=O)CC[C@H](NC(=O)CC[C@H](NC(=O)CCCCCCCCCCCCCCCCCCC(=O)O)C(=O)O)C(=O)O)C(=O)N[C@@H](CC(N)=O)C(=O)N[C@@H]([C@@H](C)O)C(=O)N[C@@H](C)C(=O)N[C@@H]([C@@H](C)O)C(=O)N1)[C@@H](C)O)C(=O)N[C@@H](C)C(=O)N[C@@H](CC(=O)O)C(=O)N[C@@H](Cc1ccccc1)C(=O)N[C@@H](CC(C)C)C(=O)N[C@@H](CCCNC(=N)N)C(=O)N[C@@H](Cc1c[nH]cn1)C(=O)N[C@@H](CO)C(=O)N[C@@H](CO)C(=O)N[C@@H](CC(N)=O)C(=O)N1CCC[C@H]1C(=O)N[C@@H](Cc1ccccc1)C(=O)NCC(=O)N[C@@H](C)C(=O)N1CCC[C@H]1C(=O)N[C@@H](CC(C)C)C(=O)N[C@@H](CO)C(=O)N[C@@H](CO)C(=O)N[C@H](C(=O)N[C@@H](CC(N)=O)C(=O)N[C@H](C(=O)NCC(=O)N[C@@H](CO)C(=O)N[C@@H](CC(=O)O)C(=O)N[C@H](C(=O)N[C@@H](Cc1ccc(O)cc1)C(N)=O)[C@@H](C)O)C(C)C)[C@@H](C)O, Synthetic acylated analogue of human amylin; also called compound 3) | 6.7 ratio | 0.205 nM | 1.38 nM

Second part, the binder after the results:

Ratio hCT/hAmylin funct. [1] | hAmylin-R funct. EC50 [1] | hCTR funct. EC50 [2] | Binder
5.7 ratio | 0.128 nM | 0.729 nM | {C20 diacid-γGlu}-KCNTATCATQRLAEFLRHSSPNFGPILPPTNVGSNTY-NH2 (disulfide 2-7; SMILES CC[C@H](C)[C@H](NC(=O)[C@@H]1CCCN1C(=O)CNC(=O)[C@H](Cc1ccccc1)NC(=O)[C@H](CC(N)=O)NC(=O)[C@@H]1CCCN1C(=O)[C@H](CO)NC(=O)[C@H](CO)NC(=O)[C@H](Cc1c[nH]cn1)NC(=O)[C@H](CCCNC(=N)N)NC(=O)[C@H](CC(C)C)NC(=O)[C@H](Cc1ccccc1)NC(=O)[C@H](CCC(=O)O)NC(=O)[C@H](C)NC(=O)[C@H](CC(C)C)NC(=O)[C@H](CCCNC(=N)N)NC(=O)[C@H](CCC(N)=O)NC(=O)[C@@H](NC(=O)[C@H](C)NC(=O)[C@@H]1CSSC[C@H](NC(=O)[C@H](CCCCN)NC(=O)CC[C@H](NC(=O)CCCCCCCCCCCCCCCCCCC(=O)O)C(=O)O)C(=O)N[C@@H](CC(N)=O)C(=O)N[C@@H]([C@@H](C)O)C(=O)N[C@@H](C)C(=O)N[C@@H]([C@@H](C)O)C(=O)N1)[C@@H](C)O)C(=O)N[C@@H](CC(C)C)C(=O)N1CCC[C@H]1C(=O)N1CCC[C@H]1C(=O)N[C@H](C(=O)N[C@@H](CC(N)=O)C(=O)N[C@H](C(=O)NCC(=O)N[C@@H](CO)C(=O)N[C@@H](CC(N)=O)C(=O)N[C@H](C(=O)N[C@@H](Cc1ccc(O)cc1)C(N)=O)[C@@H](C)O)C(C)C)[C@@H](C)O, Synthetic acylated analogue of human amylin; also called compound 6)
6.5 ratio | 0.141 nM | 0.92 nM | K([AEEA-C20 diacid])CNTATCATQRLANFLRHSSPNFGAIPSSTNVGSNTY-NH2 (disulfide 2-7; N-terminus assumed; SMILES CC[C@H](C)[C@H](NC(=O)[C@H](C)NC(=O)CNC(=O)[C@H](Cc1ccccc1)NC(=O)[C@H](CC(N)=O)NC(=O)[C@@H]1CCCN1C(=O)[C@H](CO)NC(=O)[C@H](CO)NC(=O)[C@H](Cc1c[nH]cn1)NC(=O)[C@H](CCCNC(=N)N)NC(=O)[C@H](CC(C)C)NC(=O)[C@H](Cc1ccccc1)NC(=O)[C@H](CC(N)=O)NC(=O)[C@H](C)NC(=O)[C@H](CC(C)C)NC(=O)[C@H](CCCNC(=N)N)NC(=O)[C@H](CCC(N)=O)NC(=O)[C@@H](NC(=O)[C@H](C)NC(=O)[C@@H]1CSSC[C@H](NC(=O)[C@@H](N)CCCCNC(=O)COCCOCCNC(=O)CCCCCCCCCCCCCCCCCCC(=O)O)C(=O)N[C@@H](CC(N)=O)C(=O)N[C@@H]([C@@H](C)O)C(=O)N[C@@H](C)C(=O)N[C@@H]([C@@H](C)O)C(=O)N1)[C@@H](C)O)C(=O)N1CCC[C@H]1C(=O)N[C@@H](CO)C(=O)N[C@@H](CO)C(=O)N[C@H](C(=O)N[C@@H](CC(N)=O)C(=O)N[C@H](C(=O)NCC(=O)N[C@@H](CO)C(=O)N[C@@H](CC(N)=O)C(=O)N[C@H](C(=O)N[C@@H](Cc1ccc(O)cc1)C(N)=O)[C@@H](C)O)C(C)C)[C@@H](C)O, Synthetic acylated analogue of human amylin; also called compound 43) [N^ε1-[2-[2-[2-(19-carboxynonadecanoylamino)ethoxy]ethoxy]acetyl]-[Arg17,Pro21,Pro27]-h-amylin]
6.8 ratio | 0.189 nM | 1.28 nM | {C20 diacid-γGlu}-KCNTATCATQRLAEFLRHSSPNFGAIPSSTNVGKNTY-NH2 (disulfide 2-7; SMILES CC[C@H](C)[C@H](NC(=O)[C@H](C)NC(=O)CNC(=O)[C@H](Cc1ccccc1)NC(=O)[C@H](CC(N)=O)NC(=O)[C@@H]1CCCN1C(=O)[C@H](CO)NC(=O)[C@H](CO)NC(=O)[C@H](Cc1c[nH]cn1)NC(=O)[C@H](CCCNC(=N)N)NC(=O)[C@H](CC(C)C)NC(=O)[C@H](Cc1ccccc1)NC(=O)[C@H](CCC(=O)O)NC(=O)[C@H](C)NC(=O)[C@H](CC(C)C)NC(=O)[C@H](CCCNC(=N)N)NC(=O)[C@H](CCC(N)=O)NC(=O)[C@@H](NC(=O)[C@H](C)NC(=O)[C@@H]1CSSC[C@H](NC(=O)[C@H](CCCCN)NC(=O)CC[C@H](NC(=O)CCCCCCCCCCCCCCCCCCC(=O)O)C(=O)O)C(=O)N[C@@H](CC(N)=O)C(=O)N[C@@H]([C@@H](C)O)C(=O)N[C@@H](C)C(=O)N[C@@H]([C@@H](C)O)C(=O)N1)[C@@H](C)O)C(=O)N1CCC[C@H]1C(=O)N[C@@H](CO)C(=O)N[C@@H](CO)C(=O)N[C@H](C(=O)N[C@@H](CC(N)=O)C(=O)N[C@H](C(=O)NCC(=O)N[C@@H](CCCCN)C(=O)N[C@@H](CC(N)=O)C(=O)N[C@H](C(=O)N[C@@H](Cc1ccc(O)cc1)C(N)=O)[C@@H](C)O)C(C)C)[C@@H](C)O, Synthetic acylated analogue of human amylin; also called compound 36)
